Test results as given in patent publication US20230057904A1 (Chugai, published 2023).
Residue numbers refer to the chain shown, from its start.

B1: bivalent IgG antibody 25H0021/20L0072 (antibody, V domains shown)
VH: QVQLVESGGGVVQPGRSLRLSCAASGFTFSSLTMSWVRQAPGQGLEWMGTISSGGGRTYYPDSVKGRFTISRDNSKNTLYLQMNSLRAEDTAVYYCARGDYRYDGFAYWGQGTLVTVSS
VL: DIQMTQSPSSLSASVGDRVTITCRASYNIDSYLAWYQQKPGKAPKLLIYASTLLVDGVPSRFSGSRSGTDFTLTISSLQPEDFATYYCQHYYSIPYTFGQGTKLEIK
B2: bivalent IgG antibody 25H0024/20L0072 (antibody, V domains shown)
VH: B1 VH with L32V
VL: B1 VL
B3: bivalent IgG antibody 25H0042/20L0072 (antibody, V domains shown)
VH: B1 VH with L32Y, T33V
VL: B1 VL
B4: bivalent IgG antibody 25H0176/20L0072 (antibody, V domains shown)
VH: B1 VH with L32Y, G54K
VL: B1 VL
B5: bivalent IgG antibody 25H0322/20L0072 (antibody, V domains shown)
VH: B1 VH with L32Y, D62F
VL: B1 VL
B6: bivalent IgG antibody 25H0562/20L0072 (antibody, V domains shown)
VH: B1 VH with L32Y, Y108M
VL: B1 VL
B7: AH05/TR01 (bispecific antibody, V domains shown)
VH 1: EVQVEQSGPELVKPGASVKISCKTSGYTFTEYTMHWVKQSHGKSLEWIGGINPNNGNTRYNQKFKGKATLTVDKSSSTAYMELRTLTSEDSAVYYCARCGDFDLFFFFAYWGQGTLVTVSA
VL 1: DIVMTQSQKFMSTSVGDRVSVTCKASQNVGSNVAWYQQKPGQSPEGLISSASSRFSGVPDRFTGSGSGTDFTLTITNVQSEDLAEYFCQQYNSYPFTFGSGTELEIK
VH 2: QVQLVESGGGVVQPGGSLRLSCAASGFTFSNAWMHWVRQAPGKGLEWVAQIKDKSQNYATYVAESVKGRFTISRADSKNSIYLQMNSLKTEDTAVYYCRYVHYAAGYGVDIWGQGTTVTVSS
VL 2: DIVMTQSPLSLPVTPGEPASISCRSSQPLVHSNRNTYLHWYQQKPGQAPRLLIYKVSNRFSGVPDRFSGSGSGTDFTLKISRVEAEDVGVYYCGQGTQVPYTFGQGTKLEIK
notes: IgG format by Fab arm exchange, silent Fc; also called anti-CLDN6/CD3 bispecific antibody AH05/TR01
B8: CS2201 (bispecific antibody, V domains shown)
VH 1: B1 VH with L32Y
VL 1: B1 VL with A50Y
VH 2: B7 VH 2
VL 2: B7 VL 2
notes: Fab arm exchange, silent Fc; also called 25H/20L0532//TR01
B9: AE3-20/TR01 (bispecific antibody, V domains shown)
VH 1: EVKLVESGGGLVKPGGSLKLSCAASGFTFNSYTMSWVRQTPAKRLEWVVTISSGGGRTYYPDSVKGRFTISRDNARNTLYLQMSSLRSEDTAMYYCIRGDYRYDGFAYWGQGTLVTVST
VL 1: DIQMTQSPASLSASVGETVTITCRASENIDSYLAWYQQKQGKSPQLLVYASTLLVDGVPSRFSGSRSGTQFSLKINSLQSEDVARYYCQHYYSIPYTFGSGTKLEIK
VH 2: B7 VH 2
VL 2: B7 VL 2
notes: also called anti-CLDN6/CD3 bispecific antibody AE3-20/TR01; AE3.20H/AE3.20L//TR01

Tests used:
ECM [1] = assay: ECM binding assay, ECL reaction, value divided by that of MRA
ECM [2] = assay: ECM binding assay, ECL reaction
mouse CLDN6 = molecular target: T1, mouse CLDN6 (mouse, UniProt Q9Z262 1-219); assay: flow cytometry, FreeStyle 293-F transfectants expressing mouse CLDN6, 10 micro g/mL antibody, anti-human IgG Alexa Fluor 647; MFI
T1 construct: also called mCLDN6; mCLDN6/FS293
T1 chain: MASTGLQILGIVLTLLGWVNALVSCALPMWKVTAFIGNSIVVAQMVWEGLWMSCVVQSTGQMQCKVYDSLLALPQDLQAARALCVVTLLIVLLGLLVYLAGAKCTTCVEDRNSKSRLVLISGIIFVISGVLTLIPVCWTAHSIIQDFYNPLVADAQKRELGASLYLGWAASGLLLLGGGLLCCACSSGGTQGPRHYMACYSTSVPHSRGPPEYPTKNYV
Description: (§1) Antibodies were mixed with FreeStyle™ 293-F cells transiently expressed human and mouse CLDN3, 4, 6, and 9 at final concentration of 10 micro g/mL. After 1 hour of incubation, cells were washed by 0.1% BSA containing D-PBS(−), and incubated in 5 micro g/mL of either Goat anti-Human IgG (H+L) Cross-Adsorbed Secondary Antibody, Alexa Fluor 647 (Invitrogen, A21445) or Goat anti-Mouse IgG (H+L) Highly Cross-Adsorbed Secondary Antibody, Alexa Fluor 647 (Invitrogen, A21236), for 1 hour. Cells were then washed with 0.1% BSA containing D-PBS(−), resuspended in 5 micro L of 0.1% BSA containing D-PBS(−), and analyzed by flow cytometer (iQue Screener, intellicyte).

human CLDN3 [3] = molecular target: T2, human CLDN3 (human, UniProt O15551 1-220); assay: flow cytometry, FreeStyle 293-F transfectants expressing human CLDN3, anti-human IgG Alexa Fluor 647; MFI
T2 construct: also called hCLDN3; hCLDN3/BaF
T2 sequence: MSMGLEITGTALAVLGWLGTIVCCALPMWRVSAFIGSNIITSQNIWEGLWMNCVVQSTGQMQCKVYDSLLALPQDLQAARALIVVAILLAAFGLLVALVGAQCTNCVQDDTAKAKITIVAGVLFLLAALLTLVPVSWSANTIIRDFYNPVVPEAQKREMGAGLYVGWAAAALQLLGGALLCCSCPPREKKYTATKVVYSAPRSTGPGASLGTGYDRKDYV
Description: as §1

mouse CLDN3 = molecular target: T3, mouse CLDN3 (mouse, UniProt Q9Z0G9 1-219); assay: flow cytometry, FreeStyle 293-F transfectants expressing mouse CLDN3, anti-human IgG Alexa Fluor 647; MFI
T3 construct: also called mCLDN3; mCLDN3/FS293
T3 sequence: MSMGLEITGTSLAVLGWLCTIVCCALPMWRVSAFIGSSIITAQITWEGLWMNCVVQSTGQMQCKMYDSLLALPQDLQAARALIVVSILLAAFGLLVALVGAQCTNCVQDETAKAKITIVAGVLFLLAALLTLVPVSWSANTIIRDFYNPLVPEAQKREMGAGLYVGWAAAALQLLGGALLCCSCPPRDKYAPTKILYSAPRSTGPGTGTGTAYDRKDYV
Description: as §1

mouse CLDN9 = molecular target: T4, mouse CLDN9 (mouse, UniProt Q9Z0S7 1-217); assay: flow cytometry, FreeStyle 293-F transfectants expressing mouse CLDN9, anti-human IgG Alexa Fluor 647; MFI
T4 construct: also called mCLDN9; mCLDN9/FS293
T4 sequence: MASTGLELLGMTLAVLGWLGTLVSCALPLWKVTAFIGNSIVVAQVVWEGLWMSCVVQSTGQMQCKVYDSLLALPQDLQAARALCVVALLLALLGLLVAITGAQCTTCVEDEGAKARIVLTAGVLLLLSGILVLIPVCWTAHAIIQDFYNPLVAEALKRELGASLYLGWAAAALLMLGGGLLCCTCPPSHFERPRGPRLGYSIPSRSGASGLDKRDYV
Description: as §1

human CLDN4 = molecular target: T5, human CLDN4 (human, UniProt O14493 1-209); assay: flow cytometry on hCLDN4/BaF (Ba/F3 transfectant), 15 micro g/ml antibody, Alexa Fluor 488 anti-human IgG; histogram against KLH/TR01
T5 construct: also called hCLDN4; hCLDN4/BaF
T5 sequence: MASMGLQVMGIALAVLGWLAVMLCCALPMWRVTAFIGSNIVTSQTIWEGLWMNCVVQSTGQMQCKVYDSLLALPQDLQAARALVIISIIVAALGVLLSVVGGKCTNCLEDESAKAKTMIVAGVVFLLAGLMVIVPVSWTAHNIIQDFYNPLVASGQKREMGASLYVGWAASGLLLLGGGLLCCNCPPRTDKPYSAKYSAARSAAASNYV
Description: FIG. 35-1. Binding activity of anti-CLDN6/CD3 bispecific antibodies (CS2201, CS2961, AH05/TR01, and 6PHU3/TR01) to human CLDN family proteins (CLDN3, CLDN4, CLDN6, and CLDN9). Binding activity of anti-CLDN6/CD3 bispecific antibodies to BaF3 transfectants (hCLDN6/BaF, hCLDN3/BaF, hCLDN4/BaF, and hCLDN9/BaF) was examined by flow cytometer in a concentration of 15 micro g/ml, and plotted as histogram. KLH/TR01 was used as a negative control. The specificity of CS2961 to human CLDN6 was highest among the tested antibodies.
(§2) Amino acid sequence are highly conserved among CLDN3, CLDN4, CLDN6 and CLDN9. Thus we examined CLDN6 binding specificity by FACS analysis. hCLDN6/BaF, hCLDN3/BaF, hCLDN4/BaF, and hCLDN9/BaF were incubated with CS2201, CS2961, AH05/TR01 and 6PHU3/TR01 at 15 micro g/ml. KLH/TR01 generated in Example 2-3 was used as a staining control. Binding of each antibody was detected with Alexa Fluor 488-conjugated anti human IgG (Invitrogen). Dead cells were separated by eFlour 780 (Invitrogen) staining.

human CLDN3 [4] = molecular target: T2, human CLDN3; assay: flow cytometry on hCLDN3/BaF (Ba/F3 transfectant), 15 micro g/ml antibody, Alexa Fluor 488 anti-human IgG; histogram against KLH/TR01
Description: as §2

Row | Molecule | Luminescence ratio vs MRA (ECM [1]) [fold] | Luminescence (ECM [2]) | further results
1 | MRA (antibody) | 1 | 13000 | 
2 | B1 | 2.52 | 32900 | 
3 | B2 | 2.27 | 29600 | 
4 | B3 | 3.1 | 40400 | 
5 | B4 | 5.91 | 77000 | 
6 | B5 | 5.41 | 70600 | 
7 | B6 | 2.5 | 32600 | 
8 | B7 |  |  | binding result (mouse CLDN6): binds; binding result (human CLDN3 [3]): no binding (tested: 10 micro g/mL); binding result (mouse CLDN3): no binding (tested: 10 micro g/mL); binding result (mouse CLDN9): no binding (tested: 10 micro g/mL)
9 | B8 |  |  | binding result (human CLDN4): binds; binding result (human CLDN3 [4]): binds
10 | B9 |  |  | binding result (human CLDN3 [3]): no binding (tested: 10 micro g/mL); binding result (mouse CLDN3): no binding (tested: 10 micro g/mL)
